Consider two molecules from patent US20100022402A1, “Methods and Compositions for the In Vitro High-Throughput Detection of Protein/Protein Interactions” (priority 2004, published 2010).

Experiment [1] deals with T1, λD-Acid display phage (gpD fused to acidic aptamer [Gly-Glu]4) (bacteriophage lambda), P03712.
T1 chain: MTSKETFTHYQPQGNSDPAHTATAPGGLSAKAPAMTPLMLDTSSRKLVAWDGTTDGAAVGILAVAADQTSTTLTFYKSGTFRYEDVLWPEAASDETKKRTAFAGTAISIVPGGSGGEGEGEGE
Nature of the experiment: apparent KD, calculated as the concentration of free peptide that results in an IC50 in the λD-Acid:λD-Base co-infection assay.

For experiment [2], the target named is T1, λD-Acid display phage (gpD fused to …). Nature of the experiment: competition: free peptide titrates λD-Acid:λD-Base co-infection (MOI 0.0025), loss of double resistant multilysogens.
Experiment [3] has as its target T2, λD-Base display phage (gpD fused to basic aptamer [Gly-Arg]4) (bacteriophage lambda), P03712.
T2 chain: T1 chain with E117R, E119R, E121R, E123R
Nature of the experiment: apparent KD, calculated as the concentration of free peptide that results in an IC50 in the λD-Acid:λD-Base co-infection assay.

In experiment [4] the target is T2, λD-Base display phage (gpD fused to …). Description: competition: free peptide titrates λD-Acid:λD-Base co-infection (MOI 0.0025), loss of double resistant multilysogens.

Positions count from the first letter of the chain named. Where no end group is shown, it is not given here.

Broadly, the IC50 is the concentration that inhibits the measured activity by half. A higher IC50 goes with weaker potency. With GRGRGRGR (not fully specified) [Basic Aptamer (free synthetic peptide [Gly-Arg]4)], the Kd in experiment [1] was 10 nM. This molecule also showed an IC50 in experiment [2] of 10 nM.

Turning to GEGEGEGE (not fully specified) [Acidic Aptamer (free synthetic peptide [Gly-Glu]4)], the Kd in experiment [3] is 10 nM. The IC50 in experiment [4] turned out to be 10 nM.
